Publication PMC4344348, “Quantitative Analysis of Ligand-EGFR Interactions: A Platform for Screening Targeting Molecules” (PLoS ONE, 2015)

Biological target: T1, Epidermal growth factor receptor (UniProt P00533 25-645)
T1 construct: Epidermal growth factor receptor (EGFR), bought from Sigma-Aldrich; Coupled by its amines to the dextran of a CM5 chip (about 12,000 RU) for both SPR and AFM; also called EGFR; source: bought: Sigma-Aldrich
Experiment: SPR; Biacore X; EGFR amine-coupled to a CM5 chip, ligands flowed over; room temperature; running buffer PBS; flow 10 ul/min; regeneration 50 mM NaOH; channel without EGFR as control; EGF 0.25-4 uM, GE11 10-160 uM; KD from BIAEvaluation software
Conditions: both partners purified

B1: Peptide GE11 (peptide)
peptide: YHWYGYTPQNVI
notes: In solution for SPR; for AFM coupled to succinimide-modified silicon nitride tips; source: synthetic peptide, custom synthesized by Millipore
A Kd of 459 µM was found for B1 in this work.
